One series has as its system HSALR mice. In words: Serum biochemistry profile. The series is classed as in vivo, mouse. The source says: Mouse handling and experimental procedures followed the European law regarding laboratory animal care and experimentation (2003/65/C.E.) and were approved by Conselleria de Agricultura, […] (reference no. A1539961490857). We used homozygous transgenic HSA^LR (line 20 b) mice,[90] which were kindly provided by Dr Thornton (Rochester, NY) and were housed and bred in our animal facility. […] The mice were randomly allocated to the different treatments as follows: in each cage, each mouse was ear-marked as it was taken out, and each mouse was then assigned to a different treatment. Animals were injected biweekly intravenously with 150 μL of 1× PBS vehicle (controls; […] Mice were sacrificed 45 days after the first injection and the tissues of interest were frozen in liquid nitrogen for the molecular and histological assays. All the mice used in this study ranged from 5 to 5.5 months of age and all were males. At 45 days post treatment, animals were sacrificed, and blood was collected by cardiac puncture exsanguination with K3-EDTA (Sarstedt, Nümbrecht, Germany). The samples were analyzed by Laboratorios Montoro Botella (Valencia, Spain).

The subject of series [1] is MBNL1 protein levels in DM1 cells. The series is classed as cell-based, human. The following applies: for Tindex (therapeutic index): Tindex = TC50 x Emax / EC50; for EC50: median effective concentration for MBNL1 increase, DM1 myotubes, lipofection (X-tremeGENE HP), medium replaced after 4 h, cells collected day 4, each concentration in triplicate; for MBNL1 fold change: vs untreated DM1 cells. On the procedure:
Immortalized MyoD-inducible (doxycycline) DM1 and control fibroblasts were kindly provided by Dr Furling (Institute of Myology, Paris, France).[38] For the activity assay, cells were seeded in 6-well plates at a density of 8 × 10^4 cells/well and grown in DMEM with 4.5 g/L glucose, 1% P/S, and 10% FBS (Sigma, St. Louis, MO). […] In all cases, the cells were grown at 37°C in a humidified atmosphere containing 5% CO2. Transdifferentiation was induced at day 0, and transfection was performed by lipofection with X-tremeGENE HP (Roche, Basel, Switzerland) 24 h later, with antimiRs and test compounds in the cell medium at different concentrations (from 0.4 nM to 5 μM). The medium was replaced with fresh differentiation medium 4 h afterward. In the gymnosis assay, test compounds were added to the culture medium only at the corresponding EC50 concentration. Cells were collected on day 4 of differentiation and were processed for protein extraction.
For total protein extraction, human muscle cells were sonicated while mouse muscles (gastrocnemius and quadriceps) were homogenized in Pierce RIPA buffer (Thermo Scientific, Waltham, MA) supplemented with protease and phosphatase inhibitor cocktails (Roche Applied Science, Penzberg, Germany). Quantification of total protein was performed with a Pierce BCA protein assay kit (Thermo Scientific) using bovine serum albumin as standard.
A 96-well plate QDB assay was used[87] to determine MBNL1 protein levels in all replicates and concentrations of each ON tested. This technique allows for high-throughput screening of low protein concentration samples over conventional western blot (WB) (Figure S9).[88] Cell samples (1 μg/well) and mice samples (2 μg/well) were prepared with 4× loading buffer, denatured (100°C for 5 min) and loaded in QDB plates (Quanticision Diagnostics, Research Triangle Park, NC). For the quantification of in vitro samples, the QDB was performed exactly as described in Moreno et al.[87] […] For Mbnl1 quantification in mouse muscle tissues, we implemented the following modifications: each sample was loaded in quadruplicate on three different plates. One was used to detect Mbnl1 with a mouse MB1a(4A8) antibody (DSHB, Iowa City, IA) using a 1:200 dilution. A second plate was used to quantify tubulin (endogenous normalization control) with a mouse 12G10 antibody (DSHB) using a 1:1,000 dilution. A third plate was used to quantify IgG signal (negative control to subtract background) using an anti-mouse-IgG secondary antibody (Sigma-Aldrich) at 1:3,500 dilution. […] All primary antibodies were detected using horseradish peroxidase-conjugated anti-mouse-IgG secondary antibody (1:5,000 for the anti-mouse plate, 1:2,000 for cell plates, and 1:3,500 for mouse plates [Sigma-Aldrich, MO]). Immunoreactive bands were detected using Pierce ECL Western reagent (Thermo Scientific), and luminescence levels were determined using an Infinite M200 PRO plate reader (Tecan). […] WB assay was performed as described previously.[20]
After obtaining the TC50, EC50, and Emax in vitro, we defined a Tindex as follows: Tindex=TC50×Emax/EC50

The mark [2] stands for this setting: HSALR mice, 9.2 mg/kg (mean) i.v. x3, day 45, serum, mean ± sd, n = 5.

Where two headings read alike, the source gives them in different places.

The results in this text go back to paper PMC10514136, “Peptide-conjugated antimiRs improve myotonic dystrophy type 1 phenotypes by promoting endogenous MBNL1 expression” (Molecular Therapy. Nucleic Acids, 2023).

The EC50 is the concentration that produces a half-maximal response. Read a high EC50 as lower potency in that assay. For the substance “6aKC-23b (antisense GGUAAUCCCUGGCAAUGUGAU; all phosphorodiamidate morpholino (PMO), T or U not given here; Pip6aKC peptide conjugated)”, in the series with HSALR mice (mouse, in vivo, iv, 9.2 mg/kg), the ALT is 57,8 ± 13,349 U/L, the AST is on record as 143,60 ± 41,464 U/L, the “Alkaline Phosphatase” value was 58,40 ± 6,693 U/L and the Amylase is recorded as 4232,6 ± 2590,822 U/L. For the same substance, in the series with HSALR mice (mouse, in vivo, iv, 9.2 mg/kg), the “Bile Acids” value is recorded as 0,675 ± 0,754 µmol/L, the Bilirubin was 0,11 ± 0,083 mg/dL, the C.P.K. is listed as 831,8 ± 357,821 U/L and the Creatinine is given as 0,20 ± 0 mg/dL. Further, in the series with HSALR mice (mouse, in vivo, iv, 9.2 mg/kg), the Glucose is 121,2 ± 27,607 mg/dL, the L.D.H. is listed as 2574 ± 453,119 U/L, the Total cholesterol is reported as 227,40 ± 11,014 mg/dL and the Triglycerides is on record as 235,4 ± 40,209 mg/dL. In series [1], the “Tindex (therapeutic index)” value is listed as 7.78 and the EC50 is 453 nM. The substance also returned an MBNL1 fold change in series [1] (transfection, 1,000 nM) of approximately 2 fold.

“6aKC-218 (antisense ACAUGGUUAGAUCAAGCACAA; all phosphorodiamidate morpholino (PMO), T or U not given here; Pip6aKC peptide conjugated)”: in the series with HSALR mice (mouse, in vivo, iv, 9.2 mg/kg), the ALT is recorded as 60,20 ± 16,208 U/L, the AST is recorded as 138,4 ± 57,665 U/L, the “Alkaline Phosphatase” value was 58 ± 4,123 U/L and the Amylase was 2999,4 ± 120,286 U/L. In the series on HSALR mice (mouse, in vivo, iv, 9.2 mg/kg), the “Bile Acids” value is recorded as 2,38 ± 3,406 µmol/L, the Bilirubin is listed as 0,096 ± 0,03 mg/dL, the C.P.K. is reported as 818 ± 604,389 U/L and the Creatinine is given as 0,20 ± 0 mg/dL. For the same substance, in the series on HSALR mice (mouse, in vivo, iv, 9.2 mg/kg), the Glucose is recorded as 107,2 ± 31,292 mg/dL, the L.D.H. was 2137,60 ± 340,071 U/L, the Total cholesterol is on record as 232 ± 12,124 mg/dL and the Triglycerides was 273,4 ± 51,335 mg/dL. Also, in series [1], the “Tindex (therapeutic index)” value worked out at 22.78 and a half-maximal effect (EC50) was put at 138 nM. This substance had an MBNL1 fold change in series [1] (transfection, 1,000 nM) of approximately 1.5 fold.

With “9b2-23b (antisense GGUAAUCCCUGGCAAUGUGAU; all phosphorodiamidate morpholino (PMO), T or U not given here; Pip9b2 peptide conjugated)”, in the series on HSALR mice (mouse, in vivo, iv, 9.2 mg/kg), the ALT was 47 ± 6,708 U/L, the “Alkaline Phosphatase” value is 61 ± 4,301 U/L, the Amylase is reported as 2754,4 ± 540,954 U/L and the “Bile Acids” value is on record as 9 ± 11,747 µmol/L. In addition, in the series on HSALR mice (mouse, in vivo, iv, 9.2 mg/kg), the Bilirubin is recorded as 0,102 ± 0,029 mg/dL, the Creatinine is 0,26 ± 0,054 mg/dL, the Lipase is 36,60 ± 8,264 U/L and the Urea is recorded as 53 ± 2,345 mg/dL. In the series on HSALR mice (mouse, in vivo, iv, 9.2 mg/kg), the “urea values vs HSALR group treated with PBS” value is on record as “statistically significant increase in the urea values”. Besides, in series [1], the “Tindex (therapeutic index)” value came out at 25.19 and the response was half-maximal at 16 nM (EC50). The same substance came in with a ΔTindex in series [1] (fold change in Tindex relative to the control antagomiR against the same miRNA) of 0.34 fold change.

Take “9b2-218 (antisense ACAUGGUUAGAUCAAGCACAA; all phosphorodiamidate morpholino (PMO), T or U not given here; Pip9b2 peptide conjugated)”: in the series on HSALR mice (mouse, in vivo, iv, 9.2 mg/kg), the ALT is 49 ± 19,079 U/L, the “Alkaline Phosphatase” value is 61,40 ± 6,730 U/L, the Amylase is recorded as 2773,2 ± 363,954 U/L and the “Bile Acids” value is 74,80 ± 159,433 µmol/L. For the same substance, in the series on HSALR mice (mouse, in vivo, iv, 9.2 mg/kg), the Bilirubin was 0,108 ± 0,044 mg/dL, the Creatinine is 0,32 ± 0,192 mg/dL, the Lipase is 63,8 ± 75,793 U/L and the Urea is recorded as 44,40 ± 6,985 mg/dL. For the same substance, in series [1], the “Tindex (therapeutic index)” value was 2.52 and the response was half-maximal at 64.7 nM (EC50).

With “9b2KC-23b (antisense GGUAAUCCCUGGCAAUGUGAU; all phosphorodiamidate morpholino (PMO), T or U not given here; Pip9b2KC peptide conjugated)”, in the series with HSALR mice (mouse, in vivo, iv, 9.2 mg/kg), the ALT is on record as 45,20 ± 1,303 U/L, the “Alkaline Phosphatase” value is listed as 58,8 ± 5,718 U/L, the Amylase is 2952,6 ± 123,373 U/L and the “Bile Acids” value is reported as 8,40 ± 8,264 µmol/L. Also, in the series with HSALR mice (mouse, in vivo, iv, 9.2 mg/kg), the Bilirubin is 0,10 ± 0,045 mg/dL, the Creatinine was 0.20 ± 0,071 mg/dL, the Lipase is reported as 30,6 ± 6,730 U/L and the Urea is recorded as 43,6 ± 6,580 mg/dL. For the same substance, in series [1], the “TC50 relative to EC50” value is given as 128 fold, the “Tindex (therapeutic index)” value amounted to 404.48 and the EC50 was found to be 2 nM. In series [1] (transfection, 200 nM), the MBNL1 fold change is recorded as approximately 3 fold.

Take “9b2KC-218 (antisense ACAUGGUUAGAUCAAGCACAA; all phosphorodiamidate morpholino (PMO), T or U not given here; Pip9b2KC peptide conjugated)”: in the series with HSALR mice (mouse, in vivo, iv, 9.2 mg/kg), the ALT stood at 47 ± 10 U/L, the “Alkaline Phosphatase” value is reported as 59,8 ± 6,300 U/L, the Amylase is 2593,4 ± 987,253 U/L and the “Bile Acids” value is on record as 55,20 ± 107,339 µmol/L. Further, in the series on HSALR mice (mouse, in vivo, iv, 9.2 mg/kg), the Bilirubin is reported as 0,112 ± 0,026 mg/dL, the Creatinine is reported as 0,22 ± 0,084 mg/dL, the Lipase is reported as 134,4 ± 227,401 U/L and the Urea is listed as 41 ± 1,871 mg/dL. Moreover, in series [1], the “Tindex (therapeutic index)” value is reported as 198.07 and the EC50 is 2.58 nM. The MBNL1 fold change in series [1] (transfection, 10 nM) is approximately 6 fold.

In the case of “TCTTACCTCAGTTACAATTTA-Pip9b2 [Scramble, reference compound]”, in the series with HSALR mice (setting [2]), the ALT is on record as 47,6 ± 11,327 U/L, the AST is 129,60 ± 33,687 U/L, the “Alkaline Phosphatase” value is on record as 61 ± 6,557 U/L and the Amylase was 3234,2 ± 476,489 U/L. Besides, in the series on HSALR mice (setting [2]), the “Bile Acids” value was 3,38 ± 5,188 µmol/L, the Bilirubin is listed as 0,118 ± 0,026 mg/dL, the C.P.K. is listed as 763 ± 244,663 U/L and the Creatinine is 0,20 ± 0 mg/dL. Moreover, in the series with HSALR mice (setting [2]), the Glucose is recorded as 113,60 ± 35,352 mg/dL, the L.D.H. is reported as 2438,8 ± 183,91 U/L, the Total cholesterol is 224,40 ± 11,216 mg/dL and the Triglycerides was 259,8 ± 56,287 mg/dL. The “Emax (maximum fold change)” value in series [1] (highest MBNL1 protein level vs untreated DM1 cells over the concentrations tested, transfection) is given as 1.30 fold change. In addition, a half-maximal effect in series [1] (EC50) was put at 890 nM. Further, the “ability to enhance MBNL1 expression” value in series [1] (transfection, all concentrations tested (10 nM to 5 μM)) was “no ability to enhance MBNL1 expression at any concentration tested”.
